Substrate in this series: O=C(O)CO
As to the kind of experiment: purified protein. To be noted: co-substrate O2; recombinant His-tagged enzyme.

B1: CmGOX (Cyanidioschyzon merolae strain 10D) (protein)
chain: MVEKPAVNPATQPLNLAEYHLFAKARLPAMVYGYYASGADDEQTLRDNEEAFRRLRFRPRVLIDVSRVDITKQVMGIDLSFPLMVAPTAMQRMAHPEGELATARAVARIGTVMGLSSWATTSLEDVAAHVPGLPKFFQLYVYKDRAITERLVRRAERAGFRAIALTVDTPQLGRREADIRNQFQLPPHLSLANFADMKDFAQVKGGAGASGLASYVASLIDASLNWNDIAWLKSITRLPILLKGVVTAEDAQRALQYGADGIWISNHGARQLDGVTATIDCLEEVAQSVRGRIPVFIDSGVRRGTDVVKALALGADAVLIGRPIVWGLAVDGEEGVYRLLSLLKDEFKLAMQLCGCQKVSDIRRDLVVRDAFAPYDVRQMLSVKMQSKL
As to B1, the Km came to 900 ± 200 µM.
